Data reported in patent publication US20030236190A1 (published 2003).
Positions of bridges follow the written chain, without caps; N, C: chain ends. No end group written: not given here.

B1: R20α-3-2082-IR (peptide)
peptide: FYDAIDQLVRGSARAGGTRD
B2: 20E2B-3-C8-IGFR (peptide)
peptide: QPAPDGFYSALMKLIGRGGVS
B3: 20C-3-E4-IGFR (peptide)
peptide: FFYRCLSRLLGGQLGSRLGLSCIGD
modifications: disulfide 5-22 (inferred)
B4: 20E2H-3-E12-IGFR (peptide)
peptide: VATSQGFYSGLSELLQGGGNV
B5: NNRPy-4-A9-IR (peptide)
peptide: EGSGFYGYFFSLLGLQG
B6: 20E23-3-D8-IGFR (peptide)
peptide: GGTEVDFYRALERLVRGQLGL
B7: 20E2B-2-B7-IGFR (peptide)
peptide: LSSDGQFYRALNLLLQGSAGR
B8: 20E2B-4-G11-IGFR (peptide)
peptide: RQGTGSFYLMLEQLLVGARGP
B9: 20E2B-2-22-IGFR (peptide)
peptide: PGTDLGFYQALRCVVIQGACD
modifications: not fully specified (bridges); cysteine pairing not given here
B10: 20E2A-4-F11-IGFR (peptide)
peptide: QGGSASFYDAIDRLLRMRIGG
B11: NNRPγ-4-B11-IR (peptide)
peptide: LKDGFYDYFWQRLHLGS
B12: 20C-4-C7-IGFR (peptide)
peptide: FFYDCLAALLQGVARYHDLCAVEIT
modifications: disulfide 5-20 (inferred)
B13: 20E2H-3-E3-IGFR (peptide)
peptide: PDLHKGFYAQLAQLIRGQLLS
B14: 20E2Bβ-4-G7-IR (peptide)
peptide: LQPCSGFYECIERLIGVKLSG
modifications: disulfide 4-10 (inferred)
B15: 20E2B-4-H3-IGFR (peptide)
peptide: KLHNLMFYYGLQRLVWGAGLG
B16: 20E2B-3-C6-IGFR (peptide)
peptide: VEGRGLFYDLLRQLLARRQNG
B17: 20E22-3-C2-IGFR (peptide)
peptide: GNGDGMFYQLLSLLVGRDMHV
B18: 20E2B-3-D11-IGFR (peptide)
peptide: LGVTDGFYAALGYLIHGVGQF
B19: 20E2B-3-D4-IGFR (peptide)
peptide: NSRDGGFYLQLERLLGFPVTG

target: T1, Soluble IGF-1R (R&D Systems, Cat. # 391-GR/CF); recombinant human IGF-1R (human, UniProt P08069 31-935); assay: phage ELISA, vs IR
T1 construct: extracellular domain; Eu3+-labelled in the TR-FRET assays; also called sIGF-1R; rhIGF-1R

| Binder | IGF-1R/IR Comparison [ratio] |
| --- | --- |
| B1 | 12.9 |
| B2 | 8.9 |
| B3 | 6 |
| B4 | 7.3 |
| B5 | 7.1 |
| B6 | 11.3 |
| B7 | 6.7 |
| B8 | 7 |
| B9 | 8.1 |
| B10 | 14.6 |
| B11 | 15.5 |
| B12 | 21.8 |
| B13 | 13.1 |
| B14 | 15.8 |
| B15 | 13.9 |
| B16 | 14.8 |
| B17 | 13.8 |
| B18 | 7.6 |
| B19 | 9.6 |

target: T2, Insulin receptor prepared according to Bass et al., 1996: soluble human insulin receptor-immunoglobulin heavy … (human, UniProt P06213 28-956); assay: phage ELISA, vs IGF-1R
T2 construct: extracellular domain; Eu3+-labelled in TR-FRET; also called IR; sIR-Fc; not shown: immunoglobulin heavy chain constant domains that replace the transmembrane and i

| Binder | IR/IGF-1R Comparison [ratio] |
| --- | --- |
| B1 | 0.1 |
| B2 | 0.1 |
| B3 | 0.2 |
| B4 | 0.1 |
| B5 | 0.1 |
| B6 | 0.1 |
| B7 | 0.1 |
| B8 | 0.1 |
| B9 | 0.1 |
| B10 | 0.1 |
| B11 | 0.1 |
| B12 | < 0.1 |
| B13 | 0.1 |
| B14 | 0.1 |
| B15 | 0.1 |
| B16 | 0.1 |
| B17 | 0.1 |
| B18 | 0.1 |
| B19 | 0.1 |

target: T2, Insulin receptor prepared according to …; assay: phage ELISA vs milk

| Binder | Ratio over Background [fold] |
| --- | --- |
| B1 | 3.1 |
| B2 | 1.8 |
| B3 | 1.3 |
| B4 | 0.8 |
| B5 | 1.4 |
| B6 | 1.6 |
| B7 | 0.9 |
| B8 | 0.6 |
| B9 | 0.6 |
| B10 | 1.3 |
| B11 | 1.2 |
| B12 | 1.3 |
| B13 | 1.3 |
| B14 | 1.6 |
| B15 | 1.1 |
| B16 | 1.1 |
| B17 | 0.6 |
| B18 | 1.6 |
| B19 | 0.8 |

target: T1, Soluble IGF-1R (R&D Systems, Cat. # …); assay: phage ELISA vs milk

| Binder | Ratio over Background [fold] |
| --- | --- |
| B1 | 39.9 |
| B2 | 15.6 |
| B3 | 7.7 |
| B4 | 6 |
| B5 | 10 |
| B6 | 17.7 |
| B7 | 6.1 |
| B8 | 4.5 |
| B9 | 4.9 |
| B10 | 18.8 |
| B11 | 18.7 |
| B12 | 28 |
| B13 | 16.3 |
| B14 | 25.2 |
| B15 | 14.8 |
| B16 | 16.8 |
| B17 | 8.9 |
| B18 | 12.2 |
| B19 | 7.9 |
